According to article PMC8110955, “A synthetic RNA editing factor edits its target site in chloroplasts and bacteria”:

Biological target: T1, MORF9 (UniProt Q9LPZ1 75-196, C85S;C187S)
T1 sequence: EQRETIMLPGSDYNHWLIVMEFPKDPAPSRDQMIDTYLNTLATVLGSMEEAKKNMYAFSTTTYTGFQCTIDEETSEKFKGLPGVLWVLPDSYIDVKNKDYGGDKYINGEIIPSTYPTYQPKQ
Assay: EMSA; MORF9 alone, up to highest concentration; REMSA: 1 nM RNA, 2x buffer is 85 mM Tris, 165 mM HEPES, 200 mM NaCl, 12.5 mM DTT, 0.25 mM EDTA, 1.25 mg/mL heparin, 0.1 mg/mL BSA; 30 min at ambient temperature; 5% polyacrylamide gel; pH not stated
Conditions: protein: recombinant; tags: N-terminal His-TEV tag cleaved off; label: 5'-Cy5; single strand

AUGUAUUACACGUGCAAAAUCUGAGA (ssRNA) [rpoA_REMSA (rpoA-78691)]: no binding.

CAGCAACAGAAGCCCAAGCUCAUGGA (ssRNA) [clpP1_REMSA (clpP1-69942)]: no binding.
